Fold change of PLA spots per cell, EGF against vehicle data for two substances are collected here from paper PMC8079274.

The target in the test is KSR1 in KSR1+/+ mouse embryo fibroblasts (cells that overexpress KSR1) (UniProt Q61097). The test can be described thus: proximity ligation; fixed serum-starved KSR1+/+ MEFs, anti-KSR1 with anti-pERK or anti-ERK antibodies, Duolink; vehicle or 40 μM CGS9343B for 16 h, then vehicle or 100 ng/ml EGF for 5 min; spots per cell, vehicle set to 1.
Chain of KSR1 in KSR1+/+ mouse embryo fibroblasts (cells that overexpress KSR1) (Q61097 whole entry): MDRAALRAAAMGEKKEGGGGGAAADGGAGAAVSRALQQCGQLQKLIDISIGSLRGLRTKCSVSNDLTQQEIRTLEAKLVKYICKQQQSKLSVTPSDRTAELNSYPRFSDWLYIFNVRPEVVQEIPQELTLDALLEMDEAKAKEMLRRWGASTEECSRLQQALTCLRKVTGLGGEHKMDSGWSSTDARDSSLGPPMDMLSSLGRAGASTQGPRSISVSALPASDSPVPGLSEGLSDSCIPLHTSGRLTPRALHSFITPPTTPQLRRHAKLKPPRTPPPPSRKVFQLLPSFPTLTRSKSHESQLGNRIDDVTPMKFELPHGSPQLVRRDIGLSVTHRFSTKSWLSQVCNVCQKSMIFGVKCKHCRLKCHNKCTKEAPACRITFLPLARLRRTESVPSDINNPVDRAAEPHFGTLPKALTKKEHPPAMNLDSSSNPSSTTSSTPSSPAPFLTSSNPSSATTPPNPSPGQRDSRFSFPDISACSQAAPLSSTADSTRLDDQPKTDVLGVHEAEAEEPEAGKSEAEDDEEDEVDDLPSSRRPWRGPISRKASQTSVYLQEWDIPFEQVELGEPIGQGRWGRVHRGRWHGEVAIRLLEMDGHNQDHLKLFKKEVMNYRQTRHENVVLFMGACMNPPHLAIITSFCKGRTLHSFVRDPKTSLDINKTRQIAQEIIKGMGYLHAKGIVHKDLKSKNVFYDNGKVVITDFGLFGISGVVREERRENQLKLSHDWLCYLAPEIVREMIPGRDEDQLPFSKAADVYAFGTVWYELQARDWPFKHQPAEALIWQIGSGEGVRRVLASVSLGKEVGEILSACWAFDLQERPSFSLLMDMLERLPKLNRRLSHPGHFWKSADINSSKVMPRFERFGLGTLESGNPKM

The substance “pERK (phosphorylated ERK) (from UniProt P63085 1-358) (natural protein)” came in with a fold change of PLA spots per cell, EGF against vehicle of 6.2 fold.
The value for “ERK (extracellular signal-regulated kinase), total ERK (from UniProt P63085 1-358) (natural protein)” was 4.36 fold.
